These results are taken from article PMC6226536.

Common to all, as to assay: Y2H (α-galactosidase activity)
The target in one test is SlOFP20. Conditions: read off a plot.
Another test concerns the target OVATE. Conditions: read off a plot.
The next test has as its target SlOFP20 D265V. The settings on record: read off a plot.
The next test has as its target OVATE E299V. Conditions: read off a plot.
The next test deals with SlOFP20 D284V. Conditions: read off a plot.
Another test has as its target OVATE^D280R. The settings on record: read off a plot.
For the next test, the target named is SlTRM25 fragment. Conditions: parent: est. 4.2; read off a plot.
The target in a further test is SlTRM17/20a fragment. The settings on record: read off a plot.
A further test addresses SlTRM5 fragment. Conditions: read off a plot.
In a further test the target is OVATE D280V. The settings on record: read off a plot.
Another test has as its target SlOFP20^D265R. Conditions: read off a plot.

For SlTRM25 fragment K327V, the response (milliunits/(ml×cell)) with SlOFP20 (parent: est. 4.2) is 1.9; with OVATE (parent: est. 4.2), 2.1.

Take m3; m2 SlTRM5:R374V; SlOFP20:D265V: the response (milliunits/(ml×cell)) with SlOFP20 D265V (parent: est. 5.2) was determined as 0.1.

Take m5; m2 SlTRM25:K327V; SlOFP20:D265V: the response (milliunits/(ml×cell)) in the test with SlOFP20 D265V (parent: est. 4.2) was found to be 0.1.

On to m3; m1 SlTRM5:R374V; OVATE:E299V, for which, in the test with OVATE E299V (parent: est. 7.1), the response (milliunits/(ml×cell)) amounted to 3.1.

For the substance m3; m2 SlTRM5:R374V; SlOFP20:D284V, the response (milliunits/(ml×cell)) in the test with SlOFP20 D284V (parent: est. 5.2) turned out to be 2.4.

In the case of m4; m1 SlTRM17/20a:K318V; OVATE:D280R, the response (milliunits/(ml×cell)) with OVATE^D280R (parent: est. 7.2) came out at 0.25.

For m5; m1 SlTRM25:K327V; OVATE:E299V, the response (milliunits/(ml×cell)) in the test with OVATE E299V (parent: est. 4.2) is 2.3.

Regarding OVATE E299V, the response (milliunits/(ml×cell)) stood at 2.5 in the test with SlTRM25 fragment, 5 with SlTRM17/20a fragment (parent: est. 7.2) and 3.1 with SlTRM5 fragment (parent: est. 7.1).

For m5; m1 SlTRM25:K327V; OVATE:D280V, the response (milliunits/(ml×cell)) with OVATE D280V (parent: est. 4.2) came to 0.1.

With m5; m2 SlTRM25:K327V; SlOFP20:D284V, the response (milliunits/(ml×cell)) with SlOFP20 D284V (parent: est. 4.2) was determined as 0.25.

For SlOFP20 D265V, the figures for the response (milliunits/(ml×cell)) with SlTRM25 fragment, with SlTRM17/20a fragment (parent: est. 7.9) and with SlTRM5 fragment (parent: est. 5.2) were 0.1, 6 and 0.1, respectively.

As to m3; m1 SlTRM5:R374V; OVATE:D280R, in the test with OVATE^D280R (parent: est. 7.1), the response (milliunits/(ml×cell)) was 0.1.

m4; m2 SlTRM17/20a:K318V; SlOFP20:D265R: in the test with SlOFP20^D265R (parent: est. 7.9), the response (milliunits/(ml×cell)) was 3.

Regarding m5; m1 SlTRM25:K327V; OVATE:D280R, the response (milliunits/(ml×cell)) in the test with OVATE^D280R (parent: est. 4.2) worked out at 0.1.

As for SlOFP20 D265R, the response (milliunits/(ml×cell)) was 0.1 in the test with SlTRM25 fragment, 5.3 in the test with SlTRM17/20a fragment (parent: est. 7.9) and 0.1 with SlTRM5 fragment (parent: est. 5.2).

Turning to m3; m1 SlTRM5:R374V; OVATE:D280V, in the test with OVATE D280V (parent: est. 7.1), the response (milliunits/(ml×cell)) worked out at 0.1.

For m4; m1 SlTRM17/20a:K318V; OVATE:E299V, in the test with OVATE E299V (parent: est. 7.2), the response (milliunits/(ml×cell)) was 4.1.

With m4; m2 SlTRM17/20a:K318V; SlOFP20:D284V, the response (milliunits/(ml×cell)) in the test with SlOFP20 D284V (parent: est. 7.9) was found to be 4.8.

On to m4; m2 SlTRM17/20a:K318V; SlOFP20:D265V, for which the response (milliunits/(ml×cell)) in the test with SlOFP20 D265V (parent: est. 7.9) is 3.6.

As to m3; m2 SlTRM5:R374V; SlOFP20:D265R, in the test with SlOFP20^D265R (parent: est. 5.2), the response (milliunits/(ml×cell)) stood at 0.1.

As to SlOFP20 D284V, the response (milliunits/(ml×cell)) amounted to 0.25 in the test with SlTRM25 fragment, 7.2 with SlTRM17/20a fragment (parent: est. 7.9) and 2.5 with SlTRM5 fragment (parent: est. 5.2).

Consider SlTRM5 fragment R374V, for which the response (milliunits/(ml×cell)) with SlOFP20 (parent: est. 5.2) stood at 3.4; in the test with OVATE (parent: est. 7.1), 4.7.

In the case of SlTRM17/20a fragment K318V, the values for the response (milliunits/(ml×cell)) in the test with SlOFP20 (parent: est. 7.9) and in the test with OVATE (parent: est. 7.2) were 4.5 and 4.2, respectively.

For m5; m2 SlTRM25:K327V; SlOFP20:D265R, the response (milliunits/(ml×cell)) with SlOFP20^D265R (parent: est. 4.2) came to 0.1.

On to OVATE D280R, for which the response (milliunits/(ml×cell)) with SlTRM25 fragment, with SlTRM17/20a fragment (parent: est. 7.2) and with SlTRM5 fragment (parent: est. 7.1) was 0.1 in each case.

OVATE D280V: the response (milliunits/(ml×cell)) worked out at 0.1 in the test with SlTRM25 fragment, 1.6 in the test with SlTRM17/20a fragment (parent: est. 7.2) and 0.1 in the test with SlTRM5 fragment (parent: est. 7.1).

Regarding m4; m1 SlTRM17/20a:K318V; OVATE:D280V, the response (milliunits/(ml×cell)) with OVATE D280V (parent: est. 7.2) stood at 0.9.
